Measurements reported in paper PMC4467794 (Cell, 2015).

Target: T1, Mcx1^Y174A-3xFLAG (pore-1 loop Y174A), purified recombinant (S. cerevisiae, UniProt P38323 14-520, Y174A)
T1 sequence (looked up): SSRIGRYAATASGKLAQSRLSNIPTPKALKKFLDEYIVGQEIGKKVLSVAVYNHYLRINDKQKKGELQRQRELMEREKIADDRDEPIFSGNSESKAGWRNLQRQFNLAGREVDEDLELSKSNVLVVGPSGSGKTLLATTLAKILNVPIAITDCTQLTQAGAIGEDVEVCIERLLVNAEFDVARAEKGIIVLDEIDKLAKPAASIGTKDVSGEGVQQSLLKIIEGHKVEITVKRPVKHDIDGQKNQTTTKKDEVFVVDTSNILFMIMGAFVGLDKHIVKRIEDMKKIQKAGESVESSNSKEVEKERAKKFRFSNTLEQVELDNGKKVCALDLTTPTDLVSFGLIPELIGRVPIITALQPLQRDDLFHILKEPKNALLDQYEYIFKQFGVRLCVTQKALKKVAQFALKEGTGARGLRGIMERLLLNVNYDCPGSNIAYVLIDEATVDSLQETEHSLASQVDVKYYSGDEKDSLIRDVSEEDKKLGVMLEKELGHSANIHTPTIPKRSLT
Experiment: co-IP

fold amount bound relative to holoHem1: ~10 fold
B1: apoHem1 (PLP-free Hem1, yeast ALA synthase), purified recombinant (enzyme)
chain: not shown
